{"source": "patent US20250304643A1", "about": "(BAINAN BIOTECH, published 2025)", "binders": {"B1": {"name": "Compound no. 8 (peptide)", "peptide": "Palmitoyl-H[Aib]DGTFISDYSTILDNLAARDFIEWLIQTKIT-OH", "SMILES": "CCCCCCCCCCCCCCCC(=O)N[C@@H](Cc1c[nH]cn1)C(=O)NC(C)(C)C(=O)N[C@@H](CC(=O)O)C(=O)NCC(=O)N[C@H](C(=O)N[C@@H](Cc1ccccc1)C(=O)N[C@H](C(=O)N[C@@H](CO)C(=O)N[C@@H](CC(=O)O)C(=O)N[C@@H](Cc1ccc(O)cc1)C(=O)N[C@@H](CO)C(=O)N[C@H](C(=O)N[C@H](C(=O)N[C@@H](CC(C)C)C(=O)N[C@@H](CC(=O)O)C(=O)N[C@@H](CC(N)=O)C(=O)N[C@@H](CC(C)C)C(=O)N[C@@H](C)C(=O)N[C@@H](C)C(=O)N[C@@H](CCCNC(=N)N)C(=O)N[C@@H](CC(=O)O)C(=O)N[C@@H](Cc1ccccc1)C(=O)N[C@H](C(=O)N[C@@H](CCC(=O)O)C(=O)N[C@@H](Cc1c[nH]c2ccccc12)C(=O)N[C@@H](CC(C)C)C(=O)N[C@H](C(=O)N[C@@H](CCC(N)=O)C(=O)N[C@H](C(=O)N[C@@H](CCCCN)C(=O)N[C@H](C(=O)N[C@H](C(=O)O)[C@@H](C)O)[C@@H](C)CC)[C@@H](C)O)[C@@H](C)CC)[C@@H](C)CC)[C@@H](C)CC)[C@@H](C)O)[C@@H](C)CC)[C@@H](C)O"}, "B2": {"name": "Compound no. 12 (peptide)", "peptide": "H-H[Aib]DGTFISDYSK([γGlu-Palmitoyl])ILDNLAARDFINWLIQTKITK-OH", "SMILES": "CCCCCCCCCCCCCCCC(=O)N[C@@H](CCC(=O)NCCCC[C@H](NC(=O)[C@H](CO)NC(=O)[C@H](Cc1ccc(O)cc1)NC(=O)[C@H](CC(=O)O)NC(=O)[C@H](CO)NC(=O)[C@@H](NC(=O)[C@H](Cc1ccccc1)NC(=O)[C@@H](NC(=O)CNC(=O)[C@H](CC(=O)O)NC(=O)C(C)(C)NC(=O)[C@@H](N)Cc1c[nH]cn1)[C@@H](C)O)[C@@H](C)CC)C(=O)N[C@H](C(=O)N[C@@H](CC(C)C)C(=O)N[C@@H](CC(=O)O)C(=O)N[C@@H](CC(N)=O)C(=O)N[C@@H](CC(C)C)C(=O)N[C@@H](C)C(=O)N[C@@H](C)C(=O)N[C@@H](CCCNC(=N)N)C(=O)N[C@@H](CC(=O)O)C(=O)N[C@@H](Cc1ccccc1)C(=O)N[C@H](C(=O)N[C@@H](CC(N)=O)C(=O)N[C@@H](Cc1c[nH]c2ccccc12)C(=O)N[C@@H](CC(C)C)C(=O)N[C@H](C(=O)N[C@@H](CCC(N)=O)C(=O)N[C@H](C(=O)N[C@@H](CCCCN)C(=O)N[C@H](C(=O)N[C@H](C(=O)N[C@@H](CCCCN)C(=O)O)[C@@H](C)O)[C@@H](C)CC)[C@@H](C)O)[C@@H](C)CC)[C@@H](C)CC)[C@@H](C)CC)C(=O)O"}, "B3": {"name": "Compound no. 36 (peptide)", "peptide": "Ac-H[Aib]DGTFISDYSK([γGlu-Palmitoyl])[Aib]LDNLAARDFINWLIQTKITK-OH", "SMILES": "CCCCCCCCCCCCCCCC(=O)N[C@@H](CCC(=O)NCCCC[C@H](NC(=O)[C@H](CO)NC(=O)[C@H](Cc1ccc(O)cc1)NC(=O)[C@H](CC(=O)O)NC(=O)[C@H](CO)NC(=O)[C@@H](NC(=O)[C@H](Cc1ccccc1)NC(=O)[C@@H](NC(=O)CNC(=O)[C@H](CC(=O)O)NC(=O)C(C)(C)NC(=O)[C@H](Cc1c[nH]cn1)NC(C)=O)[C@@H](C)O)[C@@H](C)CC)C(=O)NC(C)(C)C(=O)N[C@@H](CC(C)C)C(=O)N[C@@H](CC(=O)O)C(=O)N[C@@H](CC(N)=O)C(=O)N[C@@H](CC(C)C)C(=O)N[C@@H](C)C(=O)N[C@@H](C)C(=O)N[C@@H](CCCNC(=N)N)C(=O)N[C@@H](CC(=O)O)C(=O)N[C@@H](Cc1ccccc1)C(=O)N[C@H](C(=O)N[C@@H](CC(N)=O)C(=O)N[C@@H](Cc1c[nH]c2ccccc12)C(=O)N[C@@H](CC(C)C)C(=O)N[C@H](C(=O)N[C@@H](CCC(N)=O)C(=O)N[C@H](C(=O)N[C@@H](CCCCN)C(=O)N[C@H](C(=O)N[C@H](C(=O)N[C@@H](CCCCN)C(=O)O)[C@@H](C)O)[C@@H](C)CC)[C@@H](C)O)[C@@H](C)CC)[C@@H](C)CC)C(=O)O"}, "B4": {"name": "Compound no. 35 (peptide)", "peptide": "H[Aib]DGTFISDYSK([γGlu-Palmitoyl])[Aib]LDNLAARDFINWLIQTKITK-OH", "modifications": "N-terminus assumed", "SMILES": "CCCCCCCCCCCCCCCC(=O)N[C@@H](CCC(=O)NCCCC[C@H](NC(=O)[C@H](CO)NC(=O)[C@H](Cc1ccc(O)cc1)NC(=O)[C@H](CC(=O)O)NC(=O)[C@H](CO)NC(=O)[C@@H](NC(=O)[C@H](Cc1ccccc1)NC(=O)[C@@H](NC(=O)CNC(=O)[C@H](CC(=O)O)NC(=O)C(C)(C)NC(=O)[C@@H](N)Cc1c[nH]cn1)[C@@H](C)O)[C@@H](C)CC)C(=O)NC(C)(C)C(=O)N[C@@H](CC(C)C)C(=O)N[C@@H](CC(=O)O)C(=O)N[C@@H](CC(N)=O)C(=O)N[C@@H](CC(C)C)C(=O)N[C@@H](C)C(=O)N[C@@H](C)C(=O)N[C@@H](CCCNC(=N)N)C(=O)N[C@@H](CC(=O)O)C(=O)N[C@@H](Cc1ccccc1)C(=O)N[C@H](C(=O)N[C@@H](CC(N)=O)C(=O)N[C@@H](Cc1c[nH]c2ccccc12)C(=O)N[C@@H](CC(C)C)C(=O)N[C@H](C(=O)N[C@@H](CCC(N)=O)C(=O)N[C@H](C(=O)N[C@@H](CCCCN)C(=O)N[C@H](C(=O)N[C@H](C(=O)N[C@@H](CCCCN)C(=O)O)[C@@H](C)O)[C@@H](C)CC)[C@@H](C)O)[C@@H](C)CC)[C@@H](C)CC)C(=O)O"}, "B5": {"name": "Compound no. 18 (peptide)", "peptide": "{HOOC(CH2)8CO}-H[Aib]DGTFISDYST[Aib]LDNLAARDFINWLIQTKITK-OH", "SMILES": "CC[C@H](C)[C@H](NC(=O)[C@H](Cc1ccccc1)NC(=O)[C@H](CC(=O)O)NC(=O)[C@H](CCCNC(=N)N)NC(=O)[C@H](C)NC(=O)[C@H](C)NC(=O)[C@H](CC(C)C)NC(=O)[C@H](CC(N)=O)NC(=O)[C@H](CC(=O)O)NC(=O)[C@H](CC(C)C)NC(=O)C(C)(C)NC(=O)[C@@H](NC(=O)[C@H](CO)NC(=O)[C@H](Cc1ccc(O)cc1)NC(=O)[C@H](CC(=O)O)NC(=O)[C@H](CO)NC(=O)[C@@H](NC(=O)[C@H](Cc1ccccc1)NC(=O)[C@@H](NC(=O)CNC(=O)[C@H](CC(=O)O)NC(=O)C(C)(C)NC(=O)[C@H](Cc1c[nH]cn1)NC(=O)CCCCCCCCC(=O)O)[C@@H](C)O)[C@@H](C)CC)[C@@H](C)O)C(=O)N[C@@H](CC(N)=O)C(=O)N[C@@H](Cc1c[nH]c2ccccc12)C(=O)N[C@@H](CC(C)C)C(=O)N[C@H](C(=O)N[C@@H](CCC(N)=O)C(=O)N[C@H](C(=O)N[C@@H](CCCCN)C(=O)N[C@H](C(=O)N[C@H](C(=O)N[C@@H](CCCCN)C(=O)O)[C@@H](C)O)[C@@H](C)CC)[C@@H](C)O)[C@@H](C)CC"}, "B6": {"name": "Compound no. 7 (peptide)", "peptide": "Palmitoyl-H[Aib]DGTFISDYSTILDNLAARDFIEWLIQTKITK-OH", "SMILES": "CCCCCCCCCCCCCCCC(=O)N[C@@H](Cc1c[nH]cn1)C(=O)NC(C)(C)C(=O)N[C@@H](CC(=O)O)C(=O)NCC(=O)N[C@H](C(=O)N[C@@H](Cc1ccccc1)C(=O)N[C@H](C(=O)N[C@@H](CO)C(=O)N[C@@H](CC(=O)O)C(=O)N[C@@H](Cc1ccc(O)cc1)C(=O)N[C@@H](CO)C(=O)N[C@H](C(=O)N[C@H](C(=O)N[C@@H](CC(C)C)C(=O)N[C@@H](CC(=O)O)C(=O)N[C@@H](CC(N)=O)C(=O)N[C@@H](CC(C)C)C(=O)N[C@@H](C)C(=O)N[C@@H](C)C(=O)N[C@@H](CCCNC(=N)N)C(=O)N[C@@H](CC(=O)O)C(=O)N[C@@H](Cc1ccccc1)C(=O)N[C@H](C(=O)N[C@@H](CCC(=O)O)C(=O)N[C@@H](Cc1c[nH]c2ccccc12)C(=O)N[C@@H](CC(C)C)C(=O)N[C@H](C(=O)N[C@@H](CCC(N)=O)C(=O)N[C@H](C(=O)N[C@@H](CCCCN)C(=O)N[C@H](C(=O)N[C@H](C(=O)N[C@@H](CCCCN)C(=O)O)[C@@H](C)O)[C@@H](C)CC)[C@@H](C)O)[C@@H](C)CC)[C@@H](C)CC)[C@@H](C)CC)[C@@H](C)O)[C@@H](C)CC)[C@@H](C)O"}}, "biological_target": "T1, human glucose-dependent insulinotropic polypeptide receptor (human, UniProt P48546 22-466)", "T1 sequence (looked up)": "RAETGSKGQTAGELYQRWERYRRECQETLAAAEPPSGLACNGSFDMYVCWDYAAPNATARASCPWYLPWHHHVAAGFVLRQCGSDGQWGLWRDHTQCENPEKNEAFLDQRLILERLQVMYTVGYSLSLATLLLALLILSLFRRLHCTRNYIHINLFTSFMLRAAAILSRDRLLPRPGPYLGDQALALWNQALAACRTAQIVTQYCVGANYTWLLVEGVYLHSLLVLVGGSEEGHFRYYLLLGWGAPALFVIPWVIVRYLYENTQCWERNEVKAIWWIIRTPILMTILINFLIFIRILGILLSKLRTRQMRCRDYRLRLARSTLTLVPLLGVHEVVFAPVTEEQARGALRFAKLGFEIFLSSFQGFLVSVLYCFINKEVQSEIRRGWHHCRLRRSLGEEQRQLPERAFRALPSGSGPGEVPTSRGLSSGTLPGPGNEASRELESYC", "assay": "cell-based or functional assay", "note": "*1 amine or outer side, *2 acyl side, *3 side chain or, on linkers, in order; H or OH if unused. Where no end group is shown, it is not given here. Side-chain parts run from the residue outwards. [ ]: non-standard residue; d: D form. The star is where a group is joined. γGlu = O=C(O)[C@H](CCC(=O)[*:2])N[*:1]; HOOC(CH2)8CO = O=C(O)CCCCCCCCC(=O)*; Palmitoyl = CCCCCCCCCCCCCCCC(=O)*; Decanoyl = CCCCCCCCCC(=O)*; Aib = CC(C)(N)C(=O)O"}
{"binder": "Palmitoyl-HADGTFISDYSTILDNLAARDFINWLIQTKITD", "note": "[Compound no. 1]", "values": [{"measurement": "Efficacy GIPR", "value": 96, "unit": "%"}]}
{"binder": "B1", "values": [{"measurement": "Efficacy GIPR", "value": 108, "unit": "%"}]}
{"binder": "B2", "values": [{"measurement": "Efficacy GIPR", "value": 107, "unit": "%"}]}
{"binder": "H[Aib]DGTFISDYK([γGlu-Palmitoyl])T[Aib]LDNLAARDFINWLIQTKITKNDWKHNITQ-OH", "note": "[Compound no. 37]", "values": [{"measurement": "Efficacy GIPR", "value": 95, "unit": "%"}]}
{"binder": "B3", "values": [{"measurement": "EC50 (nM) GIPR", "value": 1, "unit": "nM"}, {"measurement": "Efficacy GIPR", "value": 92, "unit": "%"}]}
{"binder": "B4", "values": [{"measurement": "Efficacy GIPR", "value": 106, "unit": "%"}]}
{"binder": "B5", "values": [{"measurement": "Efficacy GIPR", "value": 77, "unit": "%"}]}
{"binder": "B6", "values": [{"measurement": "Efficacy GIPR", "value": 114, "unit": "%"}]}
{"binder": "Palmitoyl-HADGTFISDYSTILDNLAARDFINWLIQTKITD", "note": "[Compound no. 4]", "values": [{"measurement": "Efficacy GIPR", "value": 96, "unit": "%"}]}
{"binder": "Decanoyl-HADGTFISDYSTILDNLAAKDFINWLIQTKITKNDWKHNITQ", "note": "[Compound no. 3]", "values": [{"measurement": "Efficacy GIPR", "value": 76, "unit": "%"}]}
{"binder": "Palmitoyl-HADGTFISDYSTILDNLAAKDFINWLIQTKITK", "note": "[Compound no. 45]", "values": [{"measurement": "Efficacy GIPR", "value": 91, "unit": "%"}]}
